± gives the half width of the 95% confidence interval.
What was measured:
[1] = folding stability dG unfold (combined trypsin and chymotrypsin); higher = more stable
Summary of the method: (§1)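 Sequencing followed digestion of designed mini-proteins with trypsin and chymotrypsin, each at 11 concentrations in threefold dilutions together with a no-protease condition. The mini-proteins were under 80 residues, had no cysteine, sat in a PA-tagged cDNA display construct, and were kept only if AlphaFold2 dimer inter-PAE was above 15. From the counts, Bayesian fitting gave K50, and unfolding free energy was derived against a sequence-predicted unfolded-state K50 and a shared folded-state K50, per protease or combined.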

[2] = folding stability dG unfold from chymotrypsin proteolysis; higher = more stable
Summary of the method: as §1

[3] = folding stability dG unfold from trypsin proteolysis; higher = more stable
Summary of the method: as §1

Sequence | folding stability dG unfold [1] [kcal/mol] | folding stability dG unfold [2] [kcal/mol] | folding stability dG unfold [3] [kcal/mol]
SAGGSAGGSAGGMKKKIPNKTLTIEIEVKLENGLYLKMKITVNKNGEIKIEIEVIPKEDLSAGGSAGGSAGG [r7_214_TrROS_Hall] | 3.08 ± 0.14 | 3.33 ± 0.073 | 2.57 ± 0.12
SAGGSAGGSAGGMKKYKITVYDEKTGEKHTIEIEMSEEELEELAKKLAEKHNVKVRIEKVSAGGSAGGSAGG [r7_562_TrROS_Hall] | 3.91 ± 0.062 | 4.27 ± 0.052 | 2.73 ± 0.095
SAGGSAGGSAGGMKTIEITNADGSKATAELLPDGWVKIYFEETGEEKTLPAKDLTITPPSAGGSAGGSAGGS [r10_289_TrROS_Hall] | 0.466 ± 0.05 | 0.5 ± 0.013 | 0.423 ± 0.038
SAGGSAGGSAGGMKTIVLPNVTPEEAEALAAELEKKYPGRTVNVTYVPENPTTVVITVGSAGGSAGGSAGGS [r10_852_JUSTAS] | 2.41 ± 0.087 | 2.54 ± 0.12 | 2.21 ± 0.085
SAGGSAGGSAGGMKTIVVPKDELEKLKEELEKKGKKVETSEDGTWTVDGKPVKVVVEPGSAGGSAGGSAGGS [r10_930_JUSTAS] | 0.594 ± 0.1 | 0.731 ± 0.032 | 0.352 ± 0.062
SAGGSAGGSAGGMKVERVEVVELPNGQRVLTRTLEVVPPDGSSRVLETEVRFYPPDEALLSAGGSAGGSAGG [r7_917_JUSTAS] | 0.0413 ± 0.065 | 0.291 ± 0.06 | -0.666 ± 0.38
SAGGSAGGSAGGMKYTIKVTTTYPDGTVTEYTFPSSVSKEEIIKELPSDVVDITFTETASSAGGSAGGSAGG [r7_288_JUSTAS] | 2.26 ± 0.04 | 2.17 ± 0.026 | 2.17 ± 0.066
SAGGSAGGSAGGMLALIYGKEKPILLSAEEILNNPELLKELEKKGYPIVKIEFFKEEELSAGGSAGGSAGGS [r10_396_TrMRF] | 0.817 ± 0.097 | 0.478 ± 0.15 | 1.07 ± 0.049
SAGGSAGGSAGGMLKIKVYRFDKNGKLVEEEEIELPENVKEIVIKDEKTGKYYKVEIVDSAGGSAGGSAGGS [r10_970_TrROS_Hall] | 1.76 ± 0.15 | 2.02 ± 0.11 | 1.25 ± 0.053
SAGGSAGGSAGGMLKITITTPGEEREFVIPTPEPEPPGEEEVAKELGLEDVEVEVEEVLESAGGSAGGSAGG [r11_219_JUSTAS] | 0.0103 ± 0.12 | -0.0518 ± 0.1 | 0.118 ± 0.04
SAGGSAGGSAGGMLKTKVTVDPTPDGVTRVTETTYDPSTGALVKTSTTIVVPGTGEVTAVSAGGSAGGSAGG [r7_804_JUSTAS] | 0.669 ± 0.062 | 1.04 ± 0.031 | -0.779 ± 0.18
SAGGSAGGSAGGMMKTTITITLPPNSSKEEAEKIKEEGLPAEEIVVEKNPDGTRVVTILESAGGSAGGSAGG [r11_97_JUSTAS] | 0.237 ± 0.15 | 0.657 ± 0.051 | -0.915 ± 0.31
SAGGSAGGSAGGMPDGAEFELEFEFELPDGYRVRLRIRARIGPDGVVEFEVEVEVYEVPDSAGGSAGGSAGG [r7_125_TrMRF] | 5.01 ± 0.13 | 5.13 ± 0.12 | 4.58 ± 0.15
SAGGSAGGSAGGMPIKVEEYELPNGEKILKEISPEGVVKVYKVDPVNGKKEVIEVIPINKSAGGSAGGSAGG [r7_898_JUSTAS] | 1.01 ± 0.19 | 1.1 ± 0.073 | 0.446 ± 0.094
SAGGSAGGSAGGMPILEIDVAGDSPDIAIETAKAIVDELPTYNPENVKVIIKDGKVIIGSAGGSAGGSAGGS [r10_182_TrMRF] | 1.25 ± 0.15 | 1.66 ± 0.12 | 0.498 ± 0.018
SAGGSAGGSAGGMPVIEIPIRPDPNGKPRSAEEIASKIKDRFGYPVKIVSVENNHITITVSAGGSAGGSAGG [r17_426_TrROS] | 0.707 ± 0.18 | 0.983 ± 0.066 | 0.166 ± 0.076
SAGGSAGGSAGGMPVTFTGENQPVEVLSVDPERPVVVVYYPPTGTLLVALPPTGKVFPVSAGGSAGGSAGGS [r10_440_TrMRF] | 0.18 ± 0.14 | 0.492 ± 0.15 | -0.867 ± 0.54
SAGGSAGGSAGGMRVYEFDSEEEAQAFAEELRAAEPDVREVTIERDPETGKYRVTVVAESAGGSAGGSAGGS [r10_544_JUSTAS] | 4.62 ± 0.14 | 4.69 ± 0.091 | 4.24 ± 0.17
SAGGSAGGSAGGMTIPLEFEFPDGRRLRITYHIEPSEDGLKITAEVEIEPIPEPPLPSDSAGGSAGGSAGGS [r10_1200_TrMRF] | 3.31 ± 0.26 | 3.64 ± 0.13 | 1.93 ± 0.14
SAGGSAGGSAGGMTLTIPEEVLKKALEEGDEELLKEVVEKAGVKPEDTEVIAVTPEDLLESAGGSAGGSAGG [r7_7_JUSTAS] | 0.822 ± 0.12 | 0.919 ± 0.07 | 0.56 ± 0.072
SAGGSAGGSAGGMTVERDPEKPVVTVTITDPSGASIVVEIPYETEEEAEAAVKKVIEELASAGGSAGGSAGG [r7_756_JUSTAS] | 1.83 ± 0.13 | 1.53 ± 0.07 | 2.11 ± 0.091

Reference: the supplement of paper PMC12764529
